Measurements: patent publication US7544661 (NORTHWESTERN UNIVERSITY, dated 2009)
Ends that are not written are not given here. Asp(CONHC12) = Asp whose side chain is modified with dodecylamine

B1: Asp(CONHC12)-Val-Val-Val-Val-Val-Val-Lys-Lys-Lys-Ser-Gly-Gly-Gly-Tyr-Pro-Val-His-Pro-Ser-Thr (9) (peptide)
peptide: {Asp(CONHC12)}-VVVVVVKKKSGGGYPVHPST
modifications: also: reverse polarity: Asp(CONHC12) built on Rink amide resin, end direction unclear

What follows are binders tested against T1, recombinant human bone morphogenetic protein-2 (human, UniProt P12643 283-396) (assay: cell-based or functional assay).
T1 sequence (P12643 283-396 limits assumed): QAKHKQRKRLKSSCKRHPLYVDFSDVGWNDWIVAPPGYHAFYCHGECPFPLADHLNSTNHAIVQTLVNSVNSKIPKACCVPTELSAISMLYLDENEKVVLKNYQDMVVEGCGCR
For B1, the “expression of osteocalcin in mesenchymal stem cells (western blot)” value was 0.5 ratio (binding gels : no binding gels).

The binders below were run against T1, recombinant human bone morphogenetic … (assay: fluorescence depolarization).
For YPVHPST, the Ka was 1.9e+06 M⁻¹. In the case of KQALTQT, the Ka is reported as 210000 M⁻¹.

The binders below were run against T1, recombinant human bone morphogenetic … (assay: phage ELISA on coated growth factor, anti-M13-HRP; grade of relative binding strength, 1 highest to 4 lowest).
PIQPDER (Tested as M13 phage clone): binds. PFDPPVR (Tested as M13 phage clone): binds. KVPPANT (Tested as M13 phage clone): binds. WPALFTH (Tested as M13 phage clone): binds. QQTQAQH (Tested as M13 phage clone): binds. PGPTVQG (Tested as M13 phage clone): binds. DVSPAYH (Tested as M13 phage clone): binds. LHYPFMT (Tested as M13 phage clone): binds.

Each binder was assayed against T2, recombinant human transforming growth factor β1 (human, UniProt P01137 279-390) in the same assay as above.
T2 construct: Bought growth factor (Peprotech), physisorbed on microtiter wells for panning and ELISA; also called rh-TGF-β1; TGF-β1
T2 sequence (P01137 279-390 limits assumed): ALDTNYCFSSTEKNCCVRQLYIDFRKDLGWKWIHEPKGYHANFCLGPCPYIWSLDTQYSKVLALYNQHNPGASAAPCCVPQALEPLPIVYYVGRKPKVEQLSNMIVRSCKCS
LRNYSHS (Tested as M13 phage clone): binds. AWKSVTA (Tested as M13 phage clone): binds. RVSTWDT (Tested as M13 phage clone): binds. GKYPPTS (Tested as M13 phage clone): binds. VYRHLPT (Tested as M13 phage clone): binds. LPSPIQK (Tested as M13 phage clone): binds. LPLGNSH (Tested as M13 phage clone): binds. RTTSPTA (Tested as M13 phage clone): binds. PAPRWIH (Tested as M13 phage clone): binds.
